# “Also recorded” adds a separate entry of the source.
# Tests used:
# Assay type in all cases: in vivo, mouse
# [1] = Blood pressure and heart rate by tail-cuff method; conditions: DIO C57BL/6J male mice on HFD; about 600 U once a week; measured at 12 and 27 weeks
# From the text: FIG. 9 illustrates that administration of N-ABD094-rhArg (SEQ ID NO: 50) to DIO male mice fed a HFD [HFD (rhArg) group] in FIG. 1 for 34 weeks could reduce heart mass, and lower blood pressure and heart rate to levels similar to that of the lean control mice [CD (vehicle) group]. (A) Heart mass. (B-E) Systolic and diastolic blood pressure (B, D) and heart rate (C, E) measured respectively at 12 weeks (B, C) and 27 weeks (D, E) after rhArg treatment by tail-cuff method using Noninvasive Blood Pressure Monitoring System (CODA Scientific). *P<0.05, one-way ANOVA followed by Bonferroni test. Data are expressed as mean±SEM.
# Other than liver, obesity is also commonly associated with lipid accumulation in the kidney (renal steatosis) and heart (cardiac steatosis), causing lipotoxicity and dysfunction of these organs. Indeed, there was an increase in kidney and heart mass in DIO mice treated with vehicle (FIG. 8A and FIG. 9A).
# [2] = Insulin tolerance test (ITT)
# From the text: In terms of reversing insulin resistance on pre-existing obese mice, insulin tolerance test (ITT) was employed (FIG. 59).
# In terms of reversing insulin resistance on pre-existing obese mice, insulin tolerance test (ITT) was employed (FIG. 68A).
# hepatocyte = experiment: Transmission electron microscopy of liver (hepatocytes); conditions: for TEM of liver: autophagosomes / TEM of liver: lipid droplets: DIO C57BL/6J male mice on HFD, 3 weeks, Day 3
# From the text: FIG. 47 illustrates the liver examined by transmission electron microscopy at Day 1, Day 3, Day 5 and Day 7 of the 7-day intermittent after N-ABD094-rhArg injection.
# The presence of autophagosome in liver after treatment for 3 weeks were examined by TEM (FIGS. 62, 63 and 64).
# The presence of autophagosome in liver after treatment for 3 weeks were examined by transmission electron microscopy (FIGS. 71 and 72).
# [3] = test system: p62, LC3-II/LC3-I, p70S6K1, ULK1; experiment: Western blotting of autophagy markers in brown adipose tissue; conditions: 600 U once a week, 4 weeks
# From the text: FIG. 49 illustrates the changes of relative p62 protein levels, detected by western blotting, at different days of a 7-day intermittent fasting cycle in the brown adipose tissue (BAT) of HFD-induced C57BL/6J DIO male mice administered with 600 U N-ABD094-rhArg (SEQ ID NO: 50) once a week for 4 weeks. The p62 protein is a receptor for cargo destined to be degraded by autophagy. The marked reduction in p62 levels from Day 1 to Day 3 indicated enhanced autophagy that coincided with the entry into the fasting phase. The increase in p62 levels from Day 5 to Day 7 implicated a decrease in autophagy, which coincided with the entry into the refeeding phase. *P<0.05, one-way ANOVA followed by Bonferroni test. Data are expressed as mean±SEM, n=4 for each group.
# Ratio of LC3II/LC3-I was used as a marker of autophagy and semiquantified by western blotting. Chloroquine (an autophagy inhibitor, CQ) were injected 5 hr to accumulate autophagosomes in the BAT before tissue collection. *P<0.05, one-way ANOVA followed by Bonferroni test. Data are expressed as mean±SEM, n=4 for [HFD (vehicle)] and [HFD (rhArg)] group without CQ; n=3 for CQ-treated group.
# Data are expressed as mean±SEM, n=4 each group.
# The p62, also known as SQSTMl/sequestome 1, serves as a link between LC3B and ubiquitinated substrates and is efficiently degraded by autophagy. Thus, the level of p62 proteins can be used to monitor autophagic flux. For example, autophagic suppression correlates with an increased p62 level, and similarly, autophagic activation correlates with a decreased p62 level. […] Besides, the expression level of autophagy marker LC3B was detected in presence or absence of CQ (FIG. 50). The conversion of LC3B -I to the lower migrating form, LC3B-II, is used as an indicator of cellular autophagy level. The higher the LC3B-II/LC3B-I ratio indicates the higher incidence rate of autophagy in the tissue.
# [4] = Whitening of brown adipose tissue (size, mass, H&E histology); conditions: DIO C57BL/6J male mice on HFD; 600 U once a week, 12 weeks
# From the text: FIG. 53 illustrates that administration of 600 U N-ABD094-rhArg (SEQ ID NO: 50) once a week to C57BL/6J male mice with pre-existing HFD-induced obesity [HFD (rhArg) group] for 12 weeks could effectively reverse whitening of brown adipose tissue (BAT), with lipids stored as a large single globule (characteristic feature of white adipocytes) changing to storage of lipids in multiple small droplets (characteristic feature of brown adipocytes), which was in line with the findings of induction of lipophagy observed by TEM. […] (B) The mass of iBAT of the 3 groups of mice was in line with the size shown in A. *P<0.05, one-way ANOVA followed by Bonferroni test. Data are expressed as mean±SEM, n=5 for each group.
# After prolonged feeding on a HFD, there was a further increase in the size (FIG. 53A) and weight of the interscapular BAT (FIG. 53B) in vehicle-treated DIO mice [HFD (vehicle) group] in comparison to the lean control mice [CD (vehicle) group], which was correlated with the presence of massive amount of enlarged white-like unilobular cells (FIG. 53A). As observed under transmission electron microscopy, brown adipocyte in mice fed with HFD [HFD (vehicle) group] had massive enlarged lipid droplets (FIG. 52A). […] Many autophagosomes were actively forming and engulfing the lipid droplets (FIG. 52B). […]
# [5] = 300 U/week rhArg and/or 300 mg/kg metformin
# [6] = rhArg weekly and/or 0.33 mg RA daily
# [7] = HFD-fed male mice, 600 U once a week, 4 weeks
# [8] = DIO male mice on HFD, Day 3 of cycle
molecule,measurement,setting,value
"N-ABD094-rhArg: recombinant human arginase fused to albumin binding domain ABD094 (SEQ ID NO: 50); engineered long-acting arginine-depleting enzyme (protein, N-ABD094-rhArg, Synthesized in the Lab, engineered long-acting arginine-depleting enzyme) MHHHHHHDEAVDANSLAEAKEAANAELDSYGVSDFYKRLIDKAKTVEGVEALKDAILAALPSGSNNNNNNGSGGMSAKSRTIGIIGAPFSKGQPRGGVEEGPTVLRKAGLLEKLKEQECDVKDYGDLPFADIPNDSPFQIVKNPRSVGKASEQLAGKVAEVKKNGRISLVLGGDHSLAIGSISGHARVHPDLGVIWVDAHTDINTPLTTTSGNLHGQPVSFLLKELKGKIPDVPGFSWVTPCISAKDIVYIGLRDVDPGEHYILKTLGIKYFSMTEVDRLGIGKVMEETLSYLLGRKKRPIHLSFDVDGLDPSFTPATGTPVVGGLTYREGLYITEEIYKTGLLSGLDIMEVNPSLGKTPEEVTRTVNTAVAITLACFGLAREGNHKPIDYLNPPK",Blood pressure and heart rate,[1],levels similar to the age-matched lean control mice
same,Insulin sensitivity in ITT,"[2]; 16-month old DIO C57BL/6J male mice on HFD, once a week, at 9 weeks",markedly reverse pre-existing insulin resistance; also recorded: effectively reverse insulin resistance
same,Insulin sensitivity in ITT,"[2]; DIO C57BL/6J male mice on HFD, 300 U/week rhArg and/or 300 mg/kg metformin, after 6 weeks",marginal effect on improving insulin sensitivity but not reach statistical significant
same,Insulin sensitivity in ITT,"[2]; DIO C57BL/6J male mice on HFD, 600 U once a week, after 2 weeks (reduced daily food intake experiment)",marked increase in insulin sensitivity by 2 weeks after treatment
same,Insulin sensitivity in ITT,"[2]; DIO C57BL/6J male mice on HFD, 600 U once a week, at 2 and 4 weeks (artificial IF experiment)",reversal of insulin resistance and marked increase in insulin sensitivity by 2 weeks after treatment; also recorded: significant improvement in insulin sensitivity by 2 weeks
same,Insulin sensitivity in ITT,"[2]; DIO C57BL/6J male mice on HFD, about 600 U once a week, at 16 and 32 weeks",complete reversion of insulin resistance; also recorded: effectively reverse insulin resistance
same,Insulin sensitivity in ITT,"[2]; DIO C57BL/6J male mice on HFD, rhArg weekly and/or 0.33 mg/day RA, after 6 weeks",marginal effect on improving insulin sensitivity but not reach statistical significant
same,Insulin sensitivity in ITT,"[2]; DIO ICR female mice on HFD, once a week, at 15 and 31 weeks",better insulin sensitivity than age-matched mice in CD (vehicle) group
same,TEM of liver: autophagosomes,hepatocyte; [5],autophagosome was rarely seen
same,TEM of liver: lipid droplets,hepatocyte; [5],significant decrease in lipid droplet size
same,TEM of liver: autophagosomes,"hepatocyte; 300 U/week rhArg and/or 300 mg/kg metformin, listed as N-ABD-rhArg (SEQ ID NO: 50)",no autophagosome is observed
same,TEM of liver: autophagosomes,hepatocyte; [6],autophagosome was rarely seen
same,TEM of liver: lipid droplets,hepatocyte; [6],significant decrease in lipid droplet size
same,TEM of liver: autophagosomes,"hepatocyte; rhArg weekly and/or 0.33 mg RA daily, listed as N-ABD-rhArg (SEQ ID NO: 50)",no autophagosome is observed
same,"TEM of liver, Day 1 of the 7-day cycle",hepatocyte; [7],autophagosomes and autolysosomes were found in the hepatocye
same,"TEM of liver, Day 3 of the 7-day cycle",hepatocyte; [7],extensive lipophagy was observed
same,"TEM of liver, Day 5 of the 7-day cycle",hepatocyte; [7],autolysosome and lipophagy became rare
same,"TEM of liver, Day 7 of the 7-day cycle",hepatocyte; [7],no autophagosome and no lipophagy was observed
same,p62 protein level in BAT,"[3]; DIO C57BL/6J male mice on HFD, days of the 7-day cycle",significant decrease in p62 level at Day 3 and Day 5
same,LC3-II/LC3-I ratio in BAT upon chloroquine injection,[3]; [8],dramatic increase upon injection of CQ
same,ULK1 in BAT,[3]; [8],stimulation
same,p70S6K1 in BAT,[3]; [8],significant suppression
same,White-like unilobular cells in BAT (histology),[4],almost complete remission of white-like unilobular cells

# — patent US20210162028A1, “Methods for Inducing Intermittent Fasting and Modulating Autophagy” (The Hong Kong Polytechnic University, priority 2019, published 2021)
